What was measured:
Assay in all cases: cell-based or functional assay
[1] = target: Fer(h) (human) (UniProt P16591)
[2] = target: Ron(h) (human) (UniProt Q04912)
[3] = target: EphA1(h) (human) (UniProt P21709)
[4] = target: CLK3(h) (human) (UniProt P49761)
[5] = target: PKCα(h) (human) (UniProt P17252)
[6] = target: JAK3(h) (human) (UniProt P52333)
[7] = target: EphA5(h) (human) (UniProt P54756)
[8] = target: ARK5(h) (human) (UniProt O60285)
[9] = target: MAPKAP-K2(h) (human) (UniProt P49137)
[10] = target: EGFR(h) (human) (UniProt P00533)
[11] = target: SRPK1(h) (human) (UniProt Q96SB4)
[12] = target: Ab1(T315I)(h) (human) (UniProt P00519)
[13] = target: MSK1(h) (human) (UniProt O75582)
[14] = target: BRK(h) (human) (UniProt Q13882)
[15] = target: Hck(h) activated (human) (UniProt P08631)
[16] = target: DCAMKL2(h) (human) (UniProt Q8N568)
[17] = target: cSRC(h) (human) (UniProt P12931)
[18] = target: TSSK1(h) (human) (UniProt Q9BXA7)
[19] = target: Aurora-A(h) (human) (UniProt O14965)
[20] = target: DRAK1(h) (human) (UniProt Q9UEE5)
[21] = target: AMPKa2(h) (human) (UniProt P54646)
[22] = target: PKBα(h) (human) (UniProt P31749)
[23] = target: STK33(h) (human) (UniProt Q9BYT3)
[24] = target: IRR(h) (human) (UniProt P14616)
[25] = target: CDK1/cyclinB(h) (human) (UniProt P06493)
[26] = target: TSSK2(h) (human) (UniProt Q96PF2)
[27] = target: SGK2(h) (human) (UniProt Q9HBY8)
[28] = target: WNK2(h) (human) (UniProt Q9Y3S1)
[29] = target: CaMKIV(h) (human) (UniProt Q16566)
[30] = target: c-RAF(h) (human) (UniProt P04049)
[31] = target: CaMKIIδ(h) (human) (UniProt Q13557)
[32] = target: SAPK3(h) (human) (UniProt P53778)
[33] = target: LKB1(h) (human) (UniProt Q15831)
[34] = target: PKA(h) (human)
[35] = target: PrKX(h) (human) (UniProt P51817)
[36] = target: SAPK4(h) (human) (UniProt O15264)
[37] = target: Tec(h)activated (human) (UniProt P42680)
[38] = target: cKit(h) (human) (UniProt P10721)
[39] = target: IKKα(h) (human) (UniProt O15111)
[40] = target: MST3(h) (human) (UniProt Q9Y6E0)
[41] = target: PKCζ(h) (human) (UniProt Q05513)
[42] = target: CaMKIIγ(h) (human) (UniProt Q13555)
[43] = target: JNK3(h) (human) (UniProt P53779)
[44] = target: Itk(h) (human) (UniProt Q08881)
[45] = target: MINK(h) (human) (UniProt Q8N4C8)
[46] = target: CDK3/cyclinE(h) (human) (UniProt Q00526)
[47] = target: ASK1(h) (human) (UniProt Q99683)
[48] = target: NEK7(h) (human) (UniProt Q8TDX7)
[49] = target: IRAK4(h) (human) (UniProt Q9NWZ3)
[50] = target: EphA4(h) (human) (UniProt P54764)
[51] = target: NEK6(h) (human) (UniProt Q9HC98)
[52] = target: FGFR3(h) (human) (UniProt P22607)
[53] = target: ZAP-70(h) (human) (UniProt P43403)
[54] = target: TrkB(h) (human) (UniProt Q16620)
[55] = target: Arg(h) (human) (UniProt P42684)
[56] = target: cKit(V560G)(h) (human) (UniProt P10721)
[57] = target: Snk(h) (human) (UniProt Q9NYY3)
Snk(h) (human), sequence (Q9NYY3 whole entry): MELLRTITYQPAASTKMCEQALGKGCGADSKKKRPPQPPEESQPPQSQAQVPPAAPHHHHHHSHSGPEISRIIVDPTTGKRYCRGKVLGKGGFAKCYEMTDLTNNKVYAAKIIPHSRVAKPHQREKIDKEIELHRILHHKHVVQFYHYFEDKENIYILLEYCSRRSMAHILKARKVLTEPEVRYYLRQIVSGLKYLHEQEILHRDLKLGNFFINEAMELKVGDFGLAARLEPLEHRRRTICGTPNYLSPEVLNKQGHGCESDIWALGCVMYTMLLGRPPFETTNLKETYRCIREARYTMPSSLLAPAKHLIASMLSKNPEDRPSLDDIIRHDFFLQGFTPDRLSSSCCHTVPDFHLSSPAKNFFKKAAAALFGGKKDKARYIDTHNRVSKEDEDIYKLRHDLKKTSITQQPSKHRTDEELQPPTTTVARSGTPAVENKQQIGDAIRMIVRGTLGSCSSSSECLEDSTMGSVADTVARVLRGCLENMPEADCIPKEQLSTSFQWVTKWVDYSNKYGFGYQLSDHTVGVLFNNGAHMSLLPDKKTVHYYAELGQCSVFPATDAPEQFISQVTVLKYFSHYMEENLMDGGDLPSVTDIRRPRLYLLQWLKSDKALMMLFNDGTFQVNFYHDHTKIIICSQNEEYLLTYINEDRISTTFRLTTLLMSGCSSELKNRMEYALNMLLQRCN

Hck(h) activated (human), sequence (P08631 251-518 limits assumed): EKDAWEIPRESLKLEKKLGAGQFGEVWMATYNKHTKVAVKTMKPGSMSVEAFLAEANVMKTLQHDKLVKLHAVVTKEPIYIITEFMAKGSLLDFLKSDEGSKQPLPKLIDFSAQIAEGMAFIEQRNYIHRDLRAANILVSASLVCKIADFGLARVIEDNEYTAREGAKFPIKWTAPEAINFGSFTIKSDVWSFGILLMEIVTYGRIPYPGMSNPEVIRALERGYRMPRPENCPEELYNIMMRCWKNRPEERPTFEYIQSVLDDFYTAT
ARK5(h) (human), sequence (O60285 whole entry): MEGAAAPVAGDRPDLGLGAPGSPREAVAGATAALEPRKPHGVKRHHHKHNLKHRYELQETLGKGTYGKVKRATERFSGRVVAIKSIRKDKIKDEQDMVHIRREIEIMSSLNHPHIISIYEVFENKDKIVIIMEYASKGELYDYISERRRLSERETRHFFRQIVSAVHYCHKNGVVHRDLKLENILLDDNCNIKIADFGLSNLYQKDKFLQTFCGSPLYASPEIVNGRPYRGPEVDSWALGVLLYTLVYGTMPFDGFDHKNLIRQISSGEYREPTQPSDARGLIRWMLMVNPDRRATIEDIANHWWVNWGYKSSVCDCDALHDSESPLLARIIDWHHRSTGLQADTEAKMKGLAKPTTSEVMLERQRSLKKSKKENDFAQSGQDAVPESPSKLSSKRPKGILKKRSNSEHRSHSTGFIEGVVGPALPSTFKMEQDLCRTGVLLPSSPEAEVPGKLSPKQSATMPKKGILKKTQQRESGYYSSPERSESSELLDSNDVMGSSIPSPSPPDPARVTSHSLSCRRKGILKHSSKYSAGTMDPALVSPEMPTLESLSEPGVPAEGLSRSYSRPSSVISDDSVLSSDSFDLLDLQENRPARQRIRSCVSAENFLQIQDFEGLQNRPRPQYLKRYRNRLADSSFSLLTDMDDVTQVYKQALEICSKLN
CaMKIIδ(h) (human), sequence (Q13557 whole entry, stated change not applied): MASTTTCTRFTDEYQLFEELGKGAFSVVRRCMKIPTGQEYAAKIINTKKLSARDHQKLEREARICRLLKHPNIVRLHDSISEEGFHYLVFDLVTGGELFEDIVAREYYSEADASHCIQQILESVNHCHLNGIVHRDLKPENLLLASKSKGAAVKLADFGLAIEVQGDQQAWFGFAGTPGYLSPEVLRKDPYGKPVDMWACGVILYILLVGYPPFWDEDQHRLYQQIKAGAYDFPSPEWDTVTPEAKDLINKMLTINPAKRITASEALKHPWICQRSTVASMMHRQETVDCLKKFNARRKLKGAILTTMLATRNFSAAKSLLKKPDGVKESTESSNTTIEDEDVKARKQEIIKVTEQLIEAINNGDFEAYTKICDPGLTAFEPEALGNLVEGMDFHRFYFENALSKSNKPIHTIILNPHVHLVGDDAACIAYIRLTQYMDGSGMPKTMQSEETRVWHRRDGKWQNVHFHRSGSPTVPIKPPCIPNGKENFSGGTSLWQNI
CLK3(h) (human), sequence (P49761 whole entry): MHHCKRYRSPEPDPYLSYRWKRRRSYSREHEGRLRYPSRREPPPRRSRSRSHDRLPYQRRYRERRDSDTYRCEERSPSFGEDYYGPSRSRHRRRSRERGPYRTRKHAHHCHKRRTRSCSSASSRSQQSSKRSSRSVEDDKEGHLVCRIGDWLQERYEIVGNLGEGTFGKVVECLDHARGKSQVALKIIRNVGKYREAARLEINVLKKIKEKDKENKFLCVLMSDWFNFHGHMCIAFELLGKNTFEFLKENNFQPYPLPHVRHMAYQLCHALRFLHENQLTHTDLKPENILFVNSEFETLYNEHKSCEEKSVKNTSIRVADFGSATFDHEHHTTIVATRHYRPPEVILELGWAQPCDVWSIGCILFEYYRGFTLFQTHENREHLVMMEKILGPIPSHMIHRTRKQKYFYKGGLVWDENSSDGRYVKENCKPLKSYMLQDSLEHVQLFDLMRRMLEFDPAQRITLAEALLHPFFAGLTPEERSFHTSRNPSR
FGFR3(h) (human), sequence (P22607 397-806 limits assumed): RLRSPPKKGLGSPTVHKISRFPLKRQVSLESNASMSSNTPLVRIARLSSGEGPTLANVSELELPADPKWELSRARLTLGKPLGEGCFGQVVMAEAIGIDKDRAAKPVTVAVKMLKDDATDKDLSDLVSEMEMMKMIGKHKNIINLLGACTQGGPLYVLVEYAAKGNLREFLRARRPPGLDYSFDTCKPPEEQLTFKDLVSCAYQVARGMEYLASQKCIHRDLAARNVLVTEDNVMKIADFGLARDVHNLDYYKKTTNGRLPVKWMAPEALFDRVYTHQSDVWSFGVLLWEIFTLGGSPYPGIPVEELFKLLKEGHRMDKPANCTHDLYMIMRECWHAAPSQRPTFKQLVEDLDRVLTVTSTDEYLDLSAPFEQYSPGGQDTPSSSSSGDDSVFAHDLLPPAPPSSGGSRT
SAPK3(h) (human), sequence (P53778 whole entry): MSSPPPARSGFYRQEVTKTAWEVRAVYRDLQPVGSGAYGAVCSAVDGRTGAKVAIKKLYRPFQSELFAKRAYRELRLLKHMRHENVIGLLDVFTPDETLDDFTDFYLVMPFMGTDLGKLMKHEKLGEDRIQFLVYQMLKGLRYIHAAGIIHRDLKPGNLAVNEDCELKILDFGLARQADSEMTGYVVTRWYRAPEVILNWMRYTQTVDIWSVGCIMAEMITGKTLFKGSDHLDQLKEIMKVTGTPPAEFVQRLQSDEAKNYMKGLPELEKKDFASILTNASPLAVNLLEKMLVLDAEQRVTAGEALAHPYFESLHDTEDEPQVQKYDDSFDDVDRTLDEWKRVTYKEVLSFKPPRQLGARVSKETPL
SAPK4(h) (human), sequence (O15264 whole entry): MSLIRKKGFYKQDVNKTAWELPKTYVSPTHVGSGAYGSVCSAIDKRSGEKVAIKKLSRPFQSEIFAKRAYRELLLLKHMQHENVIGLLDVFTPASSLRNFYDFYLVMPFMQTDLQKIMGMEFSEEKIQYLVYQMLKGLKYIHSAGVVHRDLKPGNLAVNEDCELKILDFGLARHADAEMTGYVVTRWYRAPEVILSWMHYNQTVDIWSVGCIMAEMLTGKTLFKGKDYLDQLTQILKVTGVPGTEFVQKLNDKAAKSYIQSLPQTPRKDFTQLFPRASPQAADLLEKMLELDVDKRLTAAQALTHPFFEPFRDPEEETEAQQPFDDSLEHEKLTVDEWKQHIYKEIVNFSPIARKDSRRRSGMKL
SGK2(h) (human), sequence (Q9HBY8 whole entry): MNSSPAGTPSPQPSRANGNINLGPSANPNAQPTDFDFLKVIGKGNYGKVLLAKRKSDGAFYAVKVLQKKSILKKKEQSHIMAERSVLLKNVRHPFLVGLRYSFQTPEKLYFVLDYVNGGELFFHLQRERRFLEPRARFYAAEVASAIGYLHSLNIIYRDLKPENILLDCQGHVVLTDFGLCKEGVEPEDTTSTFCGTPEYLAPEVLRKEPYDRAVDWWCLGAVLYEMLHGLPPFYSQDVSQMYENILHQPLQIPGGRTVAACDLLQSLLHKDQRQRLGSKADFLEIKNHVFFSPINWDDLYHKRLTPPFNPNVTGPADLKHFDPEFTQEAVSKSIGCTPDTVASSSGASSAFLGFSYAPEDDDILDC
LKB1(h) (human), sequence (Q15831 whole entry): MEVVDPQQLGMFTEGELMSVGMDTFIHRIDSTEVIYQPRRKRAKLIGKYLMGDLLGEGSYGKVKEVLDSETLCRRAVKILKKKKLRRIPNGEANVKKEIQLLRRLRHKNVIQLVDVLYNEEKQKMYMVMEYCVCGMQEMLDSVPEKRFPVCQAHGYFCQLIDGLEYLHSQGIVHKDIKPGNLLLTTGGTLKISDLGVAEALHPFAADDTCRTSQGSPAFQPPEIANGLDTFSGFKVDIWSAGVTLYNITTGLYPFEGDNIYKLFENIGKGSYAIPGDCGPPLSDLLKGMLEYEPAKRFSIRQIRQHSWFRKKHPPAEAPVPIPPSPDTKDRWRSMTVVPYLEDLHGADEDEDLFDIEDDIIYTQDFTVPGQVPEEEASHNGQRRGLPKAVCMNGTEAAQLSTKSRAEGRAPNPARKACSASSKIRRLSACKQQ
MAPKAP-K2(h) (human), sequence (P49137 46-400 limits assumed): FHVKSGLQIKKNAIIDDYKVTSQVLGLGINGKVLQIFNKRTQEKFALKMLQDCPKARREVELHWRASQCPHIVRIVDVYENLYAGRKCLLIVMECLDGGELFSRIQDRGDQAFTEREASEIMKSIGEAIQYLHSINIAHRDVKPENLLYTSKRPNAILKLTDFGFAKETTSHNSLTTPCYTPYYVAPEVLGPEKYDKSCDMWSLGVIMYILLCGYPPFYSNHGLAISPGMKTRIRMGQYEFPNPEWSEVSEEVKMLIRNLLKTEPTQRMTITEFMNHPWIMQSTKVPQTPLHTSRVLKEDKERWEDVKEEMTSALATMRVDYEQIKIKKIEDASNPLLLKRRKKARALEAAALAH

## MMI-0100 (peptide)
[1]
  % activity: 117%
[2]
  % activity: 117%
[3]
  % activity: 114%
[4]
  % activity: 108%
[5]
  % activity: 94%
[6]
  % activity: 150%
[7]
  % activity: 110%
[8]
  % activity: 108%
[9]
  % activity: 19%
[10]
  % activity: 95%
[11]
  % activity: 69%
[12]
  % activity: 98%
[13]
  % activity: 52%
[14]
  % activity: 70%
[15]
  % activity: 58%
[16]
  % activity: 146%
[17]
  % activity: 70%
[18]
  % activity: 99%
[19]
  % activity: 120%
[20]
  % activity: 47%
[21]
  % activity: 121%
[22]
  % activity: 140%
[23]
  % activity: 99%
[24]
  % activity: 85%
[25]
  % activity: 96%
[26]
  % activity: 107%
[27]
  % activity: 103%
[28]
  % activity: 95%
[29]
  % activity: 87%
[30]
  % activity: 97%
[31]
  % activity: 89%
[32]
  % activity: 106%
[33]
  % activity: 111%
[34]
  % activity: 138%
[35]
  % activity: 84%
[36]
  % activity: 98%
[37]
  % activity: 100%
[38]
  % activity: 95%
[39]
  % activity: 108%
[40]
  % activity: 104%
[41]
  % activity: 82%
[42]
  % activity: 106%
[43]
  % activity: 104%
[44]
  % activity: 99%
[45]
  % activity: 96%
[46]
  % activity: 106%
[47]
  % activity: 100%
[48]
  % activity: 97%
[49]
  % activity: 100%
[50]
  % activity: 110%
[51]
  % activity: 109%
[52]
  % activity: 73%
[53]
  % activity: 79%
[54]
  % activity: 4%
[55]
  % activity: 89%
[56]
  % activity: 94%
[57]
  % activity: 94%

Source: patent US20160200782A1
